Laboratory results as given in IntAct's records for PubMed 11259577.

B1: Insulin receptor substrate 1 (Rattus norvegicus (Rat)), P35570 (parent)
chain: MASPPDTDGFSDVRKVGYLRKPKSMHKRFFVLRAASEAGGPARLEYYENEKKWRHKSSAPKRSIPLESCFNINKRADSKNKHLVALYTRDEHFAIAADSEAEQDSWYQALLQLHNRAKAHHDGAGGGCGGSCSGSSGVGEAGEDLSYDTGPGPAFKEVWQVILKPKGLGQTKNLIGIYRLCLTSKTISFVKLNSEAAAVVLQLMNIRRCGHSENFFFIEVGRSAVTGPGEFWMQVDDSVVAQNMHETILEAMRAMSDEFRPRTKSQSSSSCSNPISVPLRRHHLNNPPPSQVGLTRRSRTESITATSPASMVGGKPGSFRVRASSDGEGTMSRPASVDGSPVSPSTNRTHAHRHRGSSRLHPPLNHSRSIPMPSSRCSPSATSPVSLSSSSTSGHGSTSDCLFPRRSSASVSGSPSDGGFISSDEYGSSPCDFRSSFRSVTPDSLGHTPPARGEEELSNYICMGGKGASTLTAPNGHYILSRGGNGHRYIPGATMGTSPALTGDEAAGAADLDNRFRKRTHSAGTSPTISHQKTPSQSSVVSIEEYTEMMPAAYPPGGGSGGRLPGYRHSAFVPTHSYPEEGLEMHHLERRGGHHRPDSSNLHTDDGYMPMSPGVAPVPSNRKGNGDYMPMSPKSVSAPQQIINPIRRHPQRVDPNGYMMMSPSGSCSPDIGGGSCSSSSISAAPSGSSYGKPWTNGVGGHHTHALPHAKPPVESGGGKLLPCTGDYMNMSPVGDSNTSSPSECYYGPEDPQHKPVLSYYSLPRSFKHTQRPGEPEEGARHQHLRLSSSSGRLRYTATAEDSSSSTSSDSLGGGYCGARPESSVTHPHHHALQPHLPRKVDTAAQTNSRLARPTRLSLGDPKASTLPRVREQQQQQQQQQQSSLHPPEPKSPGEYVNIEFGSGQPGYLAGPATSRSSPSVRCLPQLHPAPREETGSEEYMNMDLGPGRRATWQESGGVELGRVGPAPPGAASICRPTRSVPNSRGDYMTMQIGCPRQSYVDTSPVAPVSYADMRTGIAAEKVSLPRTTGAAPPPSSTASASASVTPQGAAEQAAHSSLLGGPQGPGGMSAFTRVNLSPNHNQSAKVIRADTQGCRRRHSSETFSAPTRAANTVSFGAGAAGGGSGGGSEDVKRHSSASFENVWLRPGDLGGASKESAPGCGAAGGLEKSLNYIDLDLVKDVKQHPQDCPSQQQSLPPPPPHQPLGSNEGSSPRRSSEDLSTYASINFQKQPEDRQ
partner: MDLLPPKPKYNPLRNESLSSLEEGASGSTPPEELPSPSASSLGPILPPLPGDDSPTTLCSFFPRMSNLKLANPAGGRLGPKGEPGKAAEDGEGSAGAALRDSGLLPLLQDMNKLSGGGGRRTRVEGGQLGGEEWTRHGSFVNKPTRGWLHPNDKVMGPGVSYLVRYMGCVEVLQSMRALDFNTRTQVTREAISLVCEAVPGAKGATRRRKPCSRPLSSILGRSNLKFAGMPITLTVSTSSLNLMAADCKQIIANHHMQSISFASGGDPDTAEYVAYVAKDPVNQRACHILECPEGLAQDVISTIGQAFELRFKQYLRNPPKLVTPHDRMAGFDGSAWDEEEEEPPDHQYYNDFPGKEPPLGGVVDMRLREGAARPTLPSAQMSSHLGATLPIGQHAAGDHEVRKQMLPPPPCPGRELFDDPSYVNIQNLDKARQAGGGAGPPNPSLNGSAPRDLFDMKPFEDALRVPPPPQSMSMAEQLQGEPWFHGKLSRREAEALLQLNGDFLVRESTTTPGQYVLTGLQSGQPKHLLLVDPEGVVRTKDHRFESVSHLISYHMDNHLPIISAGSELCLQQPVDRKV

Variants of: B1
Conditions: with shc1_mouse Shc1, P98083

effect of a mutation on the interaction	Variant
with no effect	Y895F
